What was measured:
人CD38胞外区-His (hCD38-His) = biological target: T1, 人CD38胞外区-His (hCD38-His) (human (homo sapiens), UniProt P28907 43-300); experiment: SPR (Biacore X100), antibody captured by anti-human Fc, human CD38-His as analyte, 25°C
T1 construct: Recombinant, expressed in HEK293 cells; also called 人CD38-His; not shown: His tag at the C-terminus

[1] = biological target: T2, 食蟹猴CD38胞外区-His (mfCD38-His) (cynomolgus monkey (Macaca fascicularis), UniProt Q5VAN0 44-301); experiment: ELISA, mfCD38-His coated at 1.5 μg/ml, HRP mouse anti-human IgG
T2 construct: Recombinant, expressed in HEK293 cells; not shown: His tag at the C-terminus

B1: S5A10h1cross+S5B8h2 (bispecific antibody, human IgG1, kappa)
heavy 1: QVQLVQSGAEVKKPGASVKVSCKASGYAFTNSWMHWVRQAPGQGLEWMGEIHPQSGRTNYNEKFKGRVTMTRDTSTSTVYMELSSLRSEDTAVYYCARDLLQFGNQYYYAMDYWGQGTLVTVSSASTKGPSVFPLAPSSKSTSEGTAALGCLVKDYFPEPVTVSWNSGALTSGVHTFPAVLQSSGLYSLSSVVTVPSSSLGTQTYICNVDHKPSNTKVDKTVEPKSCDKTHTCPPCPAPELLGGPSVFLFPPKPKDTLMISRTPEVTCVVVDVSQEDPEVQFNWYVDGVEVHNAKTKPREEQYNSTYRVVSVLTVLHQDWLNGKEYKCKVSNKALPAPIEKTISKAKGQPREPQVCTLPPSQEEMTKNQVSLSCAVKGFYPSDIAVEWESNGQPENNYKTTPPVLDSDGSFFLVSKLTVDKSRWQEGNVFSCSVMHEALHNHYTQKSLSLSPGK
light 1: DIVMTQTPLSLPVTPGEPASISCRSSQSLVHSNGNTYLHWYLQKPGQSPQLLIYKVSNRFSGVPDRFSGSGSGTDFTLKISRVEAEDVGVYYCSQSTHVPLTFGQGTKLEIKRTVAAPSVFIFPPSDEQLKSGTASVVCLLNNFYPREAKVQWKVDNALQSGNSQESVTEQDSKDSTYSLSSTLTLSKADYEKHKVYACEVTHQGLSSPVTKSFNRGEC
heavy 2: not shown
light 2: DIQMTQSPSSLSASVGDRVTITCRASENIYSYLAWYQQKPGKAPKLLIYNAKTLAEGVPSRFSGSGSGTDFTLTISSLQPEDFATYYCQHHYGTPYTFGQGTKLEIKSSASTKGPSVFPLAPSSKSTSGGTAALGCLVKDYFPEPVTVSWNSGALTSGVHTFPAVLQSSGLYSLSSVVTVPSSSLGTQTYICNVNHKPSNTKVDKRVEPKSC
notes: Knob-into-hole plus CrossMab format, four chains
Kd (人CD38胞外区-His (hCD38-His)): 21.6 pM | binding result [1]: binds

B2: S5B8h2 (antibody, IgG1, V domains shown)
VH: QVQLVQSGAEVKKPGASVKVSCKASGYAFTNSWMHWVRQAPGQGLEWMGEIHPQSGRTNYNEKFKGRVTMTRDTSTSTVYMELSSLRSEDTAVYYCARDLLQFGNQYYYAMDYWGQGTLVTVSS
VL: DIVMTQTPLSLPVTPGEPASISCRSSQSLVHSNGNTYLHWYLQKPGQSPQLLIYKVSNRFSGVPDRFSGSGSGTDFTLKISRVEAEDVGVYYCSQSTHVPLTFGQGTKLEIK
notes: Made as a whole antibody of the IgG1 subtype; only variable domains are tied to it; also called 单克隆抗体S5B8h2
Kd (人CD38胞外区-His (hCD38-His)): 21.3 pM | binding result [1]: binds

B3: S5A10h1Fab+S5B8h2ScFv (bispecific antibody, human IgG1, kappa)
chain: DIVMTQTPLSLPVTPGEPASISCRSSQSLVHSNGNTYLHWYLQKPGQSPQLLIYKVSNRFSGVPDRFSGSGSGTDFTLKISRVEAEDVGVYYCSQSTHVPLTFGQGTKLEIKGGGGSGGGGSGGGGSQVQLVQSGAEVKKPGASVKVSCKASGYAFTNSWMHWVRQAPGQGLEWMGEIHPQSGRTNYNEKFKGRVTMTRDTSTSTVYMELSSLRSEDTAVYYCARDLLQFGNQYYYAMDYWGQGTLVTVSSEPKSSDKTHTCPPCPAPELLGGPSVFLFPPKPKDTLMISRTPEVTCVVVDVSQEDPEVQFNWYVDGVEVHNAKTKPREEQYNSTYRVVSVLTVLHQDWLNGKEYKCKVSNKALPAPIEKTISKAKGQPREPQVCTLPPSQEEMTKNQVSLSCAVKGFYPSDIAVEWESNGQPENNYKTTPPVLDSDGSFFLVSKLTVDKSRWQEGNVFSCSVMHEALHNHYTQKSLSLSPGK
heavy: not shown
light: DIQMTQSPSSLSASVGDRVTITCRASENIYSYLAWYQQKPGKAPKLLIYNAKTLAEGVPSRFSGSGSGTDFTLTISSLQPEDFATYYCQHHYGTPYTFGQGTKLEIKRTVAAPSVFIFPPSDEQLKSGTASVVCLLNNFYPREAKVQWKVDNALQSGNSQESVTEQDSKDSTYSLSSTLTLSKADYEKHKVYACEVTHQGLSSPVTKSFNRGEC
notes: Fab-FcK/scFv-FcH knob-into-hole format, three chains
Kd (人CD38胞外区-His (hCD38-His)): 151 pM | binding result [1]: binds

B4: S5A10h1 (antibody, V domains shown)
VH: QVQLVQSGAEVKKPGSSVKVSCKASDYPFISYTIHWVRQAPGQGLEWMGYINPSNGYTNYNQKFKDRVTITADKSTSTAYMELSSLRSEDTAVYYCARKYGNFYAMDYWGQGTLVTVSS
VL: DIQMTQSPSSLSASVGDRVTITCRASENIYSYLAWYQQKPGKAPKLLIYNAKTLAEGVPSRFSGSGSGTDFTLTISSLQPEDFATYYCQHHYGTPYTFGQGTKLEIK
notes: Made as a whole antibody of the IgG1 subtype; only variable domains are tied to it; also called 单克隆抗体S5A10h1
Kd (人CD38胞外区-His (hCD38-His)): 1340 pM

— CN116143933A (BEIJING ZHIREN MEIBO BIOTECHNOLOGY CO LTD, dated 2023)
